Target: replication protein A (RPA) heterotrimer, full-length (UniProt P15927)
Assay: FluorIA

B1: Full-length RAD52 tagged with 6X-His enhanced green fluorescent protein (EGFP-RAD52) (natural protein)
chain: MSGTEEAILGGRDSHPAAGGGSVLCFGQCQYTAEEYQAIQKALRQRLGPEYISSRMAGGGQKVCYIEGHRVINLANEMFGYNGWAHSITQQNVDFVDLNNGKFYVGVCAFVRVQLKDGSYHEDVGYGVSEGLKSKALSLEKARKEAVTDGLKRALRSFGNALGNCILDKDYLRSLNKLPRQLPLEVDLTKAKRQDLEPSVEEARYNSCRPNMALGHPQLQQVTSPSRPSHAVIPADQDCSSRSLSSSAVESEATHQRKLRQKQLQQQFRERMEKQQVRVSTPSAEKSEAAPPAPPVTHSTPVTVSEPLLEKDFLAGVTQELIKTLEDNSEKWAVTPDAGDGVVKPSSRADPAQTSDTLALNNQMVTQNRTPHSVCHQKPQAKSGSWDLQTYSADQRTTGNWESHRKSQDMKKRKYDPS
- RFU (NC, no inhibitor): 17100 RFU

B2: RAD52(1-303) (domain or fragment)
chain: MSGTEEAILGGRDSHPAAGGGSVLCFGQCQYTAEEYQAIQKALRQRLGPEYISSRMAGGGQKVCYIEGHRVINLANEMFGYNGWAHSITQQNVDFVDLNNGKFYVGVCAFVRVQLKDGSYHEDVGYGVSEGLKSKALSLEKARKEAVTDGLKRALRSFGNALGNCILDKDYLRSLNKLPRQLPLEVDLTKAKRQDLEPSVEEARYNSCRPNMALGHPQLQQVTSPSRPSHAVIPADQDCSSRSLSSSAVESEATHQRKLRQKQLQQQFRERMEKQQVRVSTPSAEKSEAAPPAPPVTHSTPVT
- percent inhibition of EGFP-RAD52 binding at a molar ratio of 1:1: 50%
